From US20160228506A1, “Compositions and Formulations for Prevention and Reduction of Tumorigenesis, Cancer Cell Proliferation and Invasion, and Methods of Production and Use Thereof in Cancer Treatment” (PRONUTRIA, INC., priority 2013, published 2016)

Columns and labels:
[1] = tested on: Pancreatin; format: in vitro ADME, Porcine
Method: Control samples were protease-free.
Analyses were performed using an Agilent 1100 series system.

[2] = SGF digest of 168 nutritive polypeptide library, intact protein by LC-MS/MS; format: in vitro ADME; settings: for % Intact Protein at 10 min: 168 nutritive polypeptide library SGF digest, LC-MS/MS spectral counts; for % Remaining at 10 min: 168 nutritive polypeptide library, LC-MS/MS
Outline: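 Spectral-count ratios (10 min vs 0 min, peak gel fraction plus neighbours) give the percent of each protein left intact after SGF digestion of a pooled, IMAC-purified 168-member recombinant library. Samples were gel-fractionated, trypsinised in-gel and run on Orbitrap nanoLC-MS/MS, requiring two unique peptides at 1% FDR.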

[3] = pH solubility; format: physicochemical; settings: for pH Range where Protein is >80% detected as Soluble and A650 <1 OD: Low: lower pH; for pH Range where Protein is >80% detected as Soluble and A650 <1 OD: High: upper pH
Method: pH Solubility. […] Protein was either lyophilized and then resuspended in buffer cocktail mixtures, or concentrated and then spiked into buffer cocktail mixtures at a final protein concentration of 5 to 30 mg/ml. As a control, protein was also dissolved in a solution of 8 M urea. Protein solutions were shaken for 10 min at room temperature. Turbidity of proteins was determined by measuring the absorbance of protein solutions at 650 nm. The protein solution was then centrifuged for 10 min at 1100×g to pellet undissolved or precipitated protein. The soluble protein fraction (supernatant) was sampled and protein concentration was measured by one or more of the following methods: Coomassie Plus Protein Assay (Pierce), Chip electrophoresis, gel electrophoresis, and/or absorbance at 280 nm. The pH range over which select proteins remained greater than 80% soluble as determined by Bradford and the A650 value are listed in Table E31C.

[4] = Thermostability, temperature of aggregation (ProteoStat Thermal Shift); format: physicochemical; set-up: key to Tagg: temperature in °C
Outline: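 Protein at about 10 mg/ml in citric acid/dibasic sodium phosphate buffers spanning pH 2.8–7.1, with 1× ProteoStat TS detection reagent. Samples heated from 25 °C to 95 °C at 0.5 °C per 30 sec in a real-time PCR thermocycler. Aggregation followed by fluorescence through a Texas Red filter.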

[5] = Intact half-life during simulated gastric fluid (SGF) digestion; settings: for SGF Half-life (t½): SGF pH 1.5, pepsin:polypeptide 1:20 w/w, 37° C., intact protein; for Half-life: purified proteins, chip electrophoresis

B1: SEQID-00485: nutritive polypeptide naturally produced in Chickpea, recombinantly expressed in E. coli (protein, listed as Cicer arietinum)
chain: MTKTGYINAAFRSSRNNEAYLFINDKYVLLDYAPGTSNDKVLYGPSFVRDGYKSLAKTIFGTYGIDCSFDTEYNEAFIFYENFCARIDYAPHSDKDKIISGPKKIADMFPFFKGTVFENGIDAAFRSTKGKEVYLFKGDKYARIDYLTNRLVQNIKSISDGFPCLRGTIFEAGMDSAFASHKTNEAYLFKGEYYARINFTPGSTNDIMGGVKKTLDYWPSLRGIIPLE
- Free Leu (μM) at 120 min time point of Pancreatin digest [1]: 764.9 µM
- % Intact Protein at 10 min [2]: 0%
- % Remaining at 10 min [2]: 0%
- pH Range where Protein is >80% detected as Soluble and A650 <1 OD: Low [3]: 4.6
- pH Range where Protein is >80% detected as Soluble and A650 <1 OD: Other ([3]; other pH): 2.8
- pH Range where Protein is >80% detected as Soluble and A650 <1 OD: High [3]: 7.1
- Tagg ([4]; pH 5.0): 31.5
- Tagg ([4]; pH 5.6): 34.5
- Tagg ([4]; pH 6.0): 36
- Tagg ([4]; pH 6.5): 36.5
- Tagg ([4]; pH 7.1): 36
- SGF Half-life (t½) [5]: 30 s
- Half-life [5]: 30 s

B2: SEQID-00605: nutritive polypeptide naturally produced in Mushroom, recombinantly expressed in E. coli (protein, listed as Agaricus bisporus)
chain: MLEFTLNDGNRIPAIAFGTGTALYNQDASAFVRLAIETGITHLDGAQMYENEETLGKGIKSSGKPRSELFITTKLHILKPGQTVRETLVESLGKIGVDYVDLFLIHDPTANRKEATLSEIWSQLEALKNEGLTKSIGVSNFKVEDLNEILPGAKIIPAVNQIEFHPYVLKAASPIIELCKAKGIIVASYGGQTPIVRATDGPLKDLLPKIRERLEQTRGSPVTEGQVLTKWLLQKNVIAISTSSKESRIKEFLSTVDVPDLTKQEIESIDNAGSTIHKRIYMKHIFNE
modifications: source: /note="var. bisporus"; source: /note="strain H97 / ATCC MYA-4626 / FGSC 10389"
notes: nutritive polypeptide naturally produced in Mushroom, recombinantly expressed in E. coli
- Free Leu (μM) at 120 min time point of Pancreatin digest [1]: 937.1 µM
- % Intact Protein at 10 min [2]: 0%
- % Remaining at 10 min [2]: 0%
- pH Range where Protein is >80% detected as Soluble and A650 <1 OD: Low [3]: 5.6
- pH Range where Protein is >80% detected as Soluble and A650 <1 OD: High [3]: 7.1
- Tagg ([4]; pH 4.6): 40.5
- Tagg ([4]; pH 5.0): 33.5
- Tagg ([4]; pH 5.6): 37
- Tagg ([4]; pH 6.0): 44.5
- Tagg ([4]; pH 6.5): 38.5
- Tagg ([4]; pH 7.1): 39
- SGF Half-life (t½) [5]: 12 s
- Half-life [5]: 12 s
